Measurements taken from patent US12422438B2, “Means and methods for single molecule peptide sequencing” (VIB VZW, priority 2017, dated 2025).

What was measured:
[1] = molecular target: T1, T. aquaticus aminopeptidase T (Thermus aquaticus, UniProt P23341); assay: Aminopeptidase assay with different amino acid p-nitroanilide substrates at 40° C. and 80° C.; format: biochemical; settings: FIG. 11
T1 construct: 6xHis (C); made in house; host or cells: E. coli BL21(DE3), pET24b(+)
T1 sequence (P23341 with tags, fused parts or gaps): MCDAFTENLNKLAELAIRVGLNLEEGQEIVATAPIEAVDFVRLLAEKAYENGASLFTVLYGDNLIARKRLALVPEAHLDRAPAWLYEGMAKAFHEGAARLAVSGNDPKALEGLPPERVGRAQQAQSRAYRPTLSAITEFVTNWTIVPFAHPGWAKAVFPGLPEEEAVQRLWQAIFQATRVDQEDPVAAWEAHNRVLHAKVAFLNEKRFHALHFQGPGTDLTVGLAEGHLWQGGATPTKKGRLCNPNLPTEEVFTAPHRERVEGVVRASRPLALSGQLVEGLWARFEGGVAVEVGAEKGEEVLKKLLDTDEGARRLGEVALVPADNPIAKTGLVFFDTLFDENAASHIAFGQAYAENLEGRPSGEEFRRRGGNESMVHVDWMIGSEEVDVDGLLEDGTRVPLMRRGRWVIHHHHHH
Protocol: FIG. 11. Aminopeptidase assay with different amino acid p-nitroanilide substrates. Enzyme and substrate (1.5 mM) were incubated for 2 h at 40° C. or 80° C. in PBS, after which the released p-nitroanilide was quantified by measuring the absorbance at 405 nm.
As described herein and in line with the invention described in current application, the activity differs between different amino acids. At 80° C., the panel of amino acid substrates can be roughly divided in fast-cleaved (L, M, Y, R, F) and slow-cleaved (D, P) substrates. However, at 40° C. it seems like the panel is divided in fast-cleaved (Y, R) and slow-cleaved (D, P), and substrates that lie in between (L, M, F). […] Finally, TagAPT is not only active in the p-nitroanilide assay. […] The N-terminal amino acid from peptides with proline at the second position is not easily cleaved since peptide bonds adjacent to the amino acid proline are resistant to cleavage by most peptidases (Iyver et al. 2015 FEBS Open Bio. 2015 Apr. 2; 5:292-302). In contrast to what Is stated in Minagawa et al (1988 Agricultural and Biological Chemistry 52:1755-1763) we show here that T. aquaticus aminopeptidase T can cleave N-terminal amino acids even when proline is at the second position. This surprising finding greatly enhances the generic use of Tag-APT in the method and uses disclosed in current application and in single molecule peptide sequencing in general.

[2] = Peptidase assay with L-leucine-p-nitroaniline of purified enzyme; format: biochemical; settings: 70° C., PBS buffer
Protocol: A peptidase assay with L-leucine-p-nitroaniline (140 μl PBS buffer, 30 μl 24 mM L-leucine-p-nitroaniline in MeOH and 10 μl purified Tag-APT) confirmed the presence of the active (amino) peptidase, with thermophilic properties (activity at Taq optimum of 70° C.) (FIG. 8).

[3] = L-leucine-p-nitroanilide activity check after labeling with maleimide-DyLight650; format: biochemical; settings: N-terminal cysteine labeled with DyLight650
Source text: FIG. 13. Site-specific fluorescent labeling of aminopeptidase T. A. SDS-PAGE analysis of aminopeptidase T after labeling the N-terminal cysteine with an equimolar and a 1×, 10×, 100× and 1000× molar excess of maleimide-DyLight650. Aminopeptidase T was visualized with fluorescence (DyLight650 label) and coomassie (total protein). B. Aminopeptidase T activity check with L-leucine-p-nitroanilide after labeling with maleimide-DyLight650.
Recombinant Taq aminopeptidase containing an extra N-terminal cysteine, was incubated overnight with the fluorescent maleimide-DyLight650 probe in the presence of the reducing agent TCEP (10 mM). Maleimide-DyLight650 was added in equimolar concentration, and in 10×, 100× and 1000× excess molar concentration. After separating the aminopeptidase with SDS-PAGE, it was visualized using a Coomassie stain, as well as with fluorescence to evaluate protein labeling with DyLight650.

[4] = Organic solvent tolerance of aminopeptidase T, activity with L-leucine-p-nitroanilide substrate; format: biochemical
Protocol: (§1) FIG. 12. Organic solvent tolerance of aminopeptidase T from T. aquaticus. A. The activity of aminopeptidase T was measured with L-leucine-p-nitroanilide substrate. Enzyme and substrate were incubated for 3 h at 40° C. in 50 mM TrisHCl (pH 8) containing different concentrations of the organic solvents acetonitrile (ACN), methanol (MeOH) and ethanol (EtOH). B. Circular dichroism analysis of aminopeptidase T secondary structure in 0% versus 50% MeOH (in 10 mM dipotassium phosphate buffer (K2HPO4)). C. Enzyme activity in varying concentrations of MeOH in buffer (50 mM TrisHCl, pH 8) versus deionized water (MilliQ).
(§2) It is well-known in the art that this can be achieved by solvents (such as methanol) or high temperatures. When these harsh conditions are needed, the aminopeptidases used should tolerate solvents and/or high temperatures. […] At higher organic solvent concentrations, activity can still be detected, albeit lower. […] Furthermore, the enzyme appears to be fully active in deionized (MS grade) water, which might be advantageous when the enzyme will be used with ultra-sensitive chip technology (e.g. electrical biosensor such as field effect transistors) (FIG. 12C).

[5] = Circular dichroism analysis of aminopeptidase T secondary structure; format: physicochemical; settings: 0% methanol versus 50% methanol, 10 mM K2HPO4
Protocol: as §1, §2

B1: aminopeptidase T from T. aquaticus: aminopeptidase T from Thermus aquaticus, Cys added at the N-terminus and 6×His at the C-terminus, SEQ ID No. 8 (protein)
chain: MCDAFTENLNKLAELAIRVGLNLEEGQEIVATAPIEAVDFVRLLAEKAYENGASLFTVLYGDNLIARKRLALVPEAHLDRAPAWLYEGMAKAFHEGAARLAVSGNDPKALEGLPPERVGRAQQAQSRAYRPTLSAITEFVTNWTIVPFAHPGWAKAVFPGLPEEEAVQRLWQAIFQATRVDQEDPVAAWEAHNRVLHAKVAFLNEKRFHALHFQGPGTDLTVGLAEGHLWQGGATPTKKGRLCNPNLPTEEVFTAPHRERVEGVVRASRPLALSGQLVEGLWARFEGGVAVEVGAEKGEEVLKKLLDTDEGARRLGEVALVPADNPIAKTGLVFFDTLFDENAASHIAFGQAYAENLEGRPSGEEFRRRGGNESMVHVDWMIGSEEVDVDGLLEDGTRVPLMRRGRWVIHHHHHH
modifications: labeled TaqAPT
- cleavage of dipeptides with a proline at the second position [1]: cleaves dipeptides even with a proline at the second position
- peptidase activity with L-leucine-p-nitroaniline [2]: active
- function after labeling with maleimide-DyLight650 [3]: does not jeopardize its function
- acetonitrile concentration up until which enzyme remains completely active ([4]; acetonitrile, 3 h at 40° C., 50 mM TrisHCl (pH 8)): ≤ 33%
- enzyme activity in deionized (MS grade) water ([4]; deionized water (MilliQ) versus buffer): fully active
- ethanol concentration up until which enzyme remains completely active ([4]; ethanol, 3 h at 40° C., 50 mM TrisHCl (pH 8)): ≤ 33%
- methanol concentration up until which enzyme remains completely active ([4]; methanol, 3 h at 40° C., 50 mM TrisHCl (pH 8)): ≤ 50%
- structural differences by circular dichroism (CD) [5]: no structural differences were observed
